Each block holds one binder with its values, some of them ahead of it.
Tests used:
Experiment in all cases: cell-based or functional assay
[1] = target: T1, mouse IL-27 (muIL-27), as used in Example 5 (mouse, UniProt O35228 19-228; Q8K3I6 29-234, limits assumed)
T1 sequence (looked up) 1: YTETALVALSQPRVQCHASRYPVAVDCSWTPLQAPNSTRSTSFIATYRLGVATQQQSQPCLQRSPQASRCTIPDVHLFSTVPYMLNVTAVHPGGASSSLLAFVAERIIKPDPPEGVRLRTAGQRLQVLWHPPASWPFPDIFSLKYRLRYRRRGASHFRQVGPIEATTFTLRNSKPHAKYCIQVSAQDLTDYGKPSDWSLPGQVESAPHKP
T1 sequence (looked up) 2: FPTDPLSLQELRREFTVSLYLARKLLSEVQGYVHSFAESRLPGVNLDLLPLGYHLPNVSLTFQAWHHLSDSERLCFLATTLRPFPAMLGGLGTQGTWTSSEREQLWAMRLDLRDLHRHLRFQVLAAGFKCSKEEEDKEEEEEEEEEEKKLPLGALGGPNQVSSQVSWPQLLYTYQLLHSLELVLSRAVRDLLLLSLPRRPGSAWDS

[2] = target: T2, human IL-27 (huIL-27), as used in Example 5 (human, UniProt Q14213 21-229; Q8NEV9 29-243, limits assumed)
T2 sequence (looked up) 1: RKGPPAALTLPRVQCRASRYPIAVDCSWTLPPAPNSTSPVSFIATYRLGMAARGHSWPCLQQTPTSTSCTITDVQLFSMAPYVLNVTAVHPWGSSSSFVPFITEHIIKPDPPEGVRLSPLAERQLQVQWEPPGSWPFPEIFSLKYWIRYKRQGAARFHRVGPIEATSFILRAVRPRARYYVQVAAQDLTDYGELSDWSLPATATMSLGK
T2 sequence (looked up) 2: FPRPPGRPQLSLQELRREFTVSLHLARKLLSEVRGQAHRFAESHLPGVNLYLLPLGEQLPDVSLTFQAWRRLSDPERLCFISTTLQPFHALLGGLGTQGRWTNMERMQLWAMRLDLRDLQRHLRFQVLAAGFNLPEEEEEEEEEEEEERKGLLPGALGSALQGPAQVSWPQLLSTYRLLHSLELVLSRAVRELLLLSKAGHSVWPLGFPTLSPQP

[3] = target: T1, mouse IL-27 (muIL-27), as used in …; remark: listed apart in the source
[4] = target: T2, human IL-27 (huIL-27), as used in …; remark: listed apart in the source

IC50 (nM), phospho-STAT3 in mouse spleens stimulated with the EC90 of the ligand [1]: 0.18 nM | IC50 (nM), phospho-STAT3 in mouse spleens stimulated with the EC90 of the ligand [2]: 9.3 nM | IC50 (nM), phospho-STAT3 in total human PBMCs stimulated with the EC90 of the ligand [3]: 4.83 nM | IC50 (nM), phospho-STAT3 in total human PBMCs stimulated with the EC90 of the ligand [4]: 1370 nM
B1: IL27RAm(mFc1) (Fc fusion)
chain: TRPHGSPGPLQCYSVGPLGILNCSWEPLGDLETPPVLYHQSQKYHPNRVWEVKVPSKQSWVTIPREQFTMADKLLIWGTQKGRPLWSSVSVNLETQMKPDTPQIFSQVDISEEATLEATVQWAPPVWPPQKALTCQFRYKECQAEAWTRLEPQLKTDGLTPVEMQNLEPGTCYQVSGRCQVENGYPWGEWSSPLSFQTPFLDPEDVWVSGTVCETSGKRAALLVWKDPRPCVQVTYTVWFGAGDITTTQEEVPCCKSPVPAWMEWAVVSPGNSTSWVPPTNLSLVCLAPESAPCDVGVSSADGSPGIKVTWKQGTRKPLEYVVDWAQDGDSLDKLNWTRLPPGNLSTLLPGEFKGGVPYRITVTAVYSGGLAAAPSVWGFREELVPLAGPAVWRLPDDPPGTPVVAWGEVPRHQLRGQATHYTFCIQSRGLSTVCRNVSSQTQTATLPNLHSGSFKLWVTVSTVAGQGPPGPDLSLHLPDNRIREPRGPTIKPCPPCKCPAPNLLGGPSVFIFPPKIKDVLMISLSPIVTCVVVDVSEDDPDVQISWFVNNVEVHTAQTQTHREDYNSTLRVVSALPIQHQDWMSGKEFKCKVNNKDLPAPIERTISKPKGSVRAPQVYVLPPPEEEMTKKQVTLTCMVTDFMPEDIYVEWTNNGKTELNYKNTEPVLDSDGSYFMYSKLRVEKKNWVERNSYSCSVVHEGLHNHHTTKSFSRTPGK

IC50 (nM), phospho-STAT3 in mouse spleens stimulated with the EC90 of the ligand [1]: 0.14 nM | IC50 (nM), phospho-STAT3 in mouse spleens stimulated with the EC90 of the ligand [2]: 0.32 nM | IC50 (nM), phospho-STAT3 in total human PBMCs stimulated with the EC90 of the ligand [3]: 2.97 nM | IC50 (nM), phospho-STAT3 in total human PBMCs stimulated with the EC90 of the ligand [4]: 0.95 nM
B2: human IL27RA-Fc5 fusion protein (Fc fusion)
chain: QGSAGPLQCYGVGPLGDLNCSWEPLGDLGAPSELHLQSQKYRSNKTQTVAVAAGRSWVAIPREQLTMSDKLLVWGTKAGQPLWPPVFVNLETQMKPNAPRLGPDVDFSEDDPLEATVHWAPPTWPSHKVLICQFHYRRCQEAAWTLLEPELKTIPLTPVEIQDLELATGYKVYGRCRMEKEEDLWGEWSPILSFQTPPSAPKDVWVSGNLCGTPGGEEPLLLWKAPGPCVQVSYKVWFWVGGRELSPEGITCCCSLIPSGAEWARVSAVNATSWEPLTNLSLVCLDSASAPRSVAVSSIAGSTELLVTWQPGPGEPLEHVVDWARDGDPLEKLNWVRLPPGNLSALLPGNFTVGVPYRITVTAVSASGLASASSVWGFREELAPLVGPTLWRLQDAPPGTPAIAWGEVPRHQLRGHLTHYTLCAQSGTSPSVCMNVSGNTQSVTLPDLPWGPCELWVTASTIAGQGPPGPILRLHLPDNTEPKSSDKTHTCPPCPAPEAEGAPSVFLFPPKPKDTLMISRTPEVTCVVVDVSHEDPEVKFNWYVDGVEVHNAKTKPREEQYNSTYRVVSVLTVLHQDWLNGKEYKCKVSNKALPSSIEKTISKAKGQPREPQVYTLPPSRDELTKNQVSLTCLVKGFYPSDIAVEWESNGQPENNYKTTPPVLDSDGSFFLYSKLTVDKSRWQQGNVFSCSVMHEALHNHYTQKSLSLSPGK

From patent publication US20100008917A1 (published 2010)
